Here are results for 125 sequences from the supplement of paper PMC9112550, “Optimization of the antimicrobial peptide Bac7 by deep mutational scanning” (BMC Biology, 2022).

In the data set the test system is Escherichia coli TOP10. As to the kind of experiment: shrunken log2 fold change of peptide-encoding DNA abundance (4.5 h post-induction vs induction); higher = less antimicrobial activity (less host growth inhibition). Conditions: time post-induction: 4.5 h; library: site-saturation at positions 5, 18, 19, 20.
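Note: peptides expressed intracellularly from a pBAD plasmid library in pooled LB shake-flask culture, induced with 0.3% L-arabinose, DNA abundance read by NGS, three biological replicates, DESeq2 with apeglm shrinkage.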

For the sequence RRIRDRPPRLPRPRPRPCPKPRP, the “shrunken log2 fold change” value was -0.048. Under RRIRMRPPRLPRPRPRPVFSPRP stands 0.314; under RRIRHRPPRLPRPRPRPPKLPRP, 0.12.

In the case of RRIRERPPRLPRPRPRPSVRPRP, the “shrunken log2 fold change” value was -0.148. For RRIRWRPPRLPRPRPRPIGLPRP the value was 0.0952; for RRIRTRPPRLPRPRPRPLTWPRP, -0.174; for RRIRIRPPRLPRPRPRPQLNPRP, -0.499. Under RRIRYRPPRLPRPRPRPYDFPRP stands -0.138.

Take RRIRHRPPRLPRPRPRPNMLPRP: the “shrunken log2 fold change” value was -0.387. Under RRIRDRPPRLPRPRPRPPREPRP stands 0.837; under RRIRYRPPRLPRPRPRPPEPPRP, 0.35; under RRIRVRPPRLPRPRPRPFMGPRP, -0.334. For the sequence RRIRLRPPRLPRPRPRPQDGPRP, the “shrunken log2 fold change” value is -0.0806. For RRIRSRPPRLPRPRPRPLIVPRP the value was -0.206; for RRIRRRPPRLPRPRPRPHWPPRP, 0.312; for RRIRFRPPRLPRPRPRPMDNPRP, 0.000389.

For RRIRGRPPRLPRPRPRPAPEPRP, the “shrunken log2 fold change” value was 1.34. With RRIRVRPPRLPRPRPRPELPPRP, the “shrunken log2 fold change” value is -0.0996.

With RRIRDRPPRLPRPRPRPTMHPRP, the “shrunken log2 fold change” value stood at 0.61. For RRIRKRPPRLPRPRPRPVDVPRP the value was 0.116. As for RRIRNRPPRLPRPRPRPVQHPRP, the “shrunken log2 fold change” value was -0.258. For the sequence RRIRNRPPRLPRPRPRPSAPPRP, the “shrunken log2 fold change” value came to 0.0188. RRIRSRPPRLPRPRPRPFSKPRP: the “shrunken log2 fold change” value is -0.0877. With RRIRNRPPRLPRPRPRPGNAPRP, the “shrunken log2 fold change” value worked out at 0.0258. Under RRIRFRPPRLPRPRPRPWCAPRP stands 0.185; under RRIRPRPPRLPRPRPRPNADPRP, 0.0878. For RRIRKRPPRLPRPRPRPMLTPRP the value was 0.189. Take RRIRQRPPRLPRPRPRPRAEPRP: the “shrunken log2 fold change” value was found to be 0.292.

Take RRIRLRPPRLPRPRPRPKDVPRP: the “shrunken log2 fold change” value is -0.0185. For RRIRWRPPRLPRPRPRPYQVPRP the value was -0.268; for RRIRDRPPRLPRPRPRPDQDPRP, 0.399. With RRIRHRPPRLPRPRPRPRSWPRP, the “shrunken log2 fold change” value stood at 0.129.

Consider RRIRQRPPRLPRPRPRPIWTPRP, for which the “shrunken log2 fold change” value amounted to 0.0198. Under RRIRDRPPRLPRPRPRPPQQPRP stands -0.089; under RRIRMRPPRLPRPRPRPCPNPRP, 0.0197; under RRIRTRPPRLPRPRPRPLGTPRP, -0.145. For RRIRYRPPRLPRPRPRPRFPPRP the value was -0.448. Under RRIRTRPPRLPRPRPRPLGSPRP stands 0.0751; under RRIRHRPPRLPRPRPRPMLKPRP, -0.164; under RRIRNRPPRLPRPRPRPRQAPRP, 0.0453. As for RRIRIRPPRLPRPRPRPCGEPRP, the “shrunken log2 fold change” value was -0.0104. For RRIRHRPPRLPRPRPRPKAYPRP the value was 0.0124; for RRIRARPPRLPRPRPRPIICPRP, 0.106.

For the sequence RRIRHRPPRLPRPRPRPLIHPRP, the “shrunken log2 fold change” value was -0.575. Under RRIRVRPPRLPRPRPRPAGGPRP stands 1.15; under RRIRWRPPRLPRPRPRPIAYPRP, 0.000575. Under RRIRMRPPRLPRPRPRPMINPRP stands -0.00763; under RRIRGRPPRLPRPRPRPCHEPRP, 0.492; under RRIRARPPRLPRPRPRPLAGPRP, 2.52. For the sequence RRIRGRPPRLPRPRPRPRWNPRP, the “shrunken log2 fold change” value amounted to 0.423.

RRIRPRPPRLPRPRPRPSELPRP: the “shrunken log2 fold change” value worked out at 0.0666. Under RRIRHRPPRLPRPRPRPVSFPRP stands 0.00493; under RRIRGRPPRLPRPRPRPIFQPRP, 0.407. For RRIRPRPPRLPRPRPRPMNTPRP the value was -0.0416. For RRIRLRPPRLPRPRPRPELRPRP the value was 0.214; for RRIRVRPPRLPRPRPRPVIWPRP, 0.286. Regarding RRIRCRPPRLPRPRPRPIGHPRP, the “shrunken log2 fold change” value was -0.312. Under RRIRNRPPRLPRPRPRPAHTPRP stands 0.121.

As to RRIRKRPPRLPRPRPRPVTHPRP, the “shrunken log2 fold change” value amounted to 0.0561. Under RRIRERPPRLPRPRPRPAAKPRP stands 0.0307; under RRIRLRPPRLPRPRPRPTMRPRP, 0.836. For RRIRARPPRLPRPRPRPARLPRP the value was 0.582; for RRIRYRPPRLPRPRPRPDKGPRP, -0.0723; for RRIRRRPPRLPRPRPRPEDTPRP, 0.0364.

Consider RRIRARPPRLPRPRPRPFDRPRP, for which the “shrunken log2 fold change” value stood at 0.0972.

Take RRIRSRPPRLPRPRPRPTKKPRP: the “shrunken log2 fold change” value was 0.0472. For RRIRNRPPRLPRPRPRPCCEPRP the value was 0.0852. Under RRIRCRPPRLPRPRPRPQLEPRP stands -0.135; under RRIRPRPPRLPRPRPRPHECPRP, -1.31; under RRIRRRPPRLPRPRPRPPCIPRP, 0.156. Under RRIRRRPPRLPRPRPRPFQTPRP stands 0.0413; under RRIRRRPPRLPRPRPRPSPCPRP, 0.155; under RRIRMRPPRLPRPRPRPGERPRP, 0.772. Turning to RRIRVRPPRLPRPRPRPIWVPRP, the “shrunken log2 fold change” value turned out to be 0.154. For RRIRARPPRLPRPRPRPWNPPRP the value was 0.126.

Take RRIRRRPPRLPRPRPRPANYPRP: the “shrunken log2 fold change” value is -0.049. On to RRIRERPPRLPRPRPRPQCAPRP, for which the “shrunken log2 fold change” value is 0.0306. Regarding RRIRQRPPRLPRPRPRPRSAPRP, the “shrunken log2 fold change” value amounted to 0.319. Under RRIRPRPPRLPRPRPRPNGIPRP stands -0.153; under RRIRGRPPRLPRPRPRPKSAPRP, 0.781. For RRIRNRPPRLPRPRPRPERSPRP the value was 0.129; for RRIRGRPPRLPRPRPRPVGGPRP, 0.897; for RRIRRRPPRLPRPRPRPPPYPRP, 0.366.

Take RRIRRRPPRLPRPRPRPNVRPRP: the “shrunken log2 fold change” value was -0.0448. Under RRIRVRPPRLPRPRPRPHMKPRP stands -0.483; under RRIRARPPRLPRPRPRPEPSPRP, 1.22; under RRIRIRPPRLPRPRPRPNKQPRP, -0.525. For RRIRMRPPRLPRPRPRPDGMPRP the value was 1.73; for RRIRNRPPRLPRPRPRPLMFPRP, -0.947; for RRIRQRPPRLPRPRPRPFDDPRP, -0.275.

RRIRVRPPRLPRPRPRPTRDPRP: the “shrunken log2 fold change” value was 0.472. Under RRIRFRPPRLPRPRPRPMQKPRP stands 0.00713; under RRIRCRPPRLPRPRPRPCKPPRP, -0.216; under RRIRWRPPRLPRPRPRPYAYPRP, 0.0461. For the sequence RRIRIRPPRLPRPRPRPEWGPRP, the “shrunken log2 fold change” value was -0.0166. In the case of RRIRSRPPRLPRPRPRPFYLPRP, the “shrunken log2 fold change” value is -0.818. Under RRIRIRPPRLPRPRPRPKCNPRP stands -0.701; under RRIRQRPPRLPRPRPRPIPHPRP, 0.021. Under RRIRERPPRLPRPRPRPDMYPRP stands -0.0361. For RRIRTRPPRLPRPRPRPYCFPRP the value was -0.301; for RRIRYRPPRLPRPRPRPSHFPRP, -0.411; for RRIRTRPPRLPRPRPRPHYSPRP, -0.0429. Turning to RRIRSRPPRLPRPRPRPCTRPRP, the “shrunken log2 fold change” value was -0.134.

Regarding RRIRRRPPRLPRPRPRPHAYPRP, the “shrunken log2 fold change” value is -0.394. As for RRIRIRPPRLPRPRPRPMQCPRP, the “shrunken log2 fold change” value was -0.235.

Turning to RRIRMRPPRLPRPRPRPRTEPRP, the “shrunken log2 fold change” value was determined as 0.718.

Take RRIRGRPPRLPRPRPRPVNKPRP: the “shrunken log2 fold change” value was found to be 0.0892. Turning to RRIRARPPRLPRPRPRPKYAPRP, the “shrunken log2 fold change” value came to 0.354.

With RRIRVRPPRLPRPRPRPSGNPRP, the “shrunken log2 fold change” value is -0.225. Take RRIRSRPPRLPRPRPRPLRPPRP: the “shrunken log2 fold change” value turned out to be 0.953.

Turning to RRIRPRPPRLPRPRPRPFHTPRP, the “shrunken log2 fold change” value was -0.569. For RRIRARPPRLPRPRPRPHCQPRP the value was 0.0405; for RRIRPRPPRLPRPRPRPTIPPRP, -0.361; for RRIRDRPPRLPRPRPRPKFAPRP, -0.0673. Consider RRIRDRPPRLPRPRPRPVVYPRP, for which the “shrunken log2 fold change” value was -0.349. On to RRIRIRPPRLPRPRPRPTKKPRP, for which the “shrunken log2 fold change” value was 0.0727.

For RRIRCRPPRLPRPRPRPLQAPRP, the “shrunken log2 fold change” value turned out to be 0.646. Under RRIRCRPPRLPRPRPRPSRHPRP stands -0.33; under RRIRIRPPRLPRPRPRPIILPRP, -0.646.

On to RRIRMRPPRLPRPRPRPCGLPRP, for which the “shrunken log2 fold change” value is 0.533. Under RRIRCRPPRLPRPRPRPSVMPRP stands 0.445. As for RRIRNRPPRLPRPRPRPEAFPRP, the “shrunken log2 fold change” value stood at 0.0792. Consider RRIRHRPPRLPRPRPRPQYIPRP, for which the “shrunken log2 fold change” value is -0.621. Under RRIRARPPRLPRPRPRPDICPRP stands 0.307; under RRIRERPPRLPRPRPRPGMHPRP, 0.0491.
